Source: patent US8299210 (Sanofi, dated 2012)
Where no end group is shown, it is not given here. The star is where a group is joined. Biotin = O=C1N[C@H]2[C@H](CS[C@H]2CCCCC(=O)*)N1; AEEA = NCCOCCOCC(=O)O

B1: gurmarin variant # 11 (seq # 194328) (peptide)
chain: MHHHHHHSGSSSGSGCVKKDELCNWVTPMRCEPLECLGHGLGYAYCGSGSSGSS
B2: gurmarin variant # 12 (seq # 194297) (peptide)
chain: MHHHHHHSGSSSGSGCVKKDELCVFYFPNCCEPLECRWVNDNYGWCGSGSSGSS
B3: gurmarin variant # 9 (seq # 194259) (peptide)
chain: MHHHHHHSGSSSGSGCVKKDELCARWDLVCCEPLECIYTSELYATCGSGSSGSS
B4: gurmarin variant # 16 (seq # 194533) (peptide)
chain: MHHHHHHSGSSSGSGCVKKDELCARWDLVCCEPLECIYTSELYATCGSGSSGSS
B5: gurmarin variant # 15 (seq # 194511) (peptide)
chain: MHHHHHHSGSSSGSGCVKKDELCSQSVPMCCEPLECKWFNENYGICGSGSSGSS
B6: gurmarin variant # 10 (seq # 194264) (peptide)
chain: MHHHHHHSGSSSGSGCVKKDELCELAVDECCEPLECFQMGHGFKRCGSGSSGSS
B7: gurmarin variant # 14 (seq # 194479) (peptide)
chain: MHHHHHHSGSSSGSGCVKKDELCTTASKSCCEPLECKWTNEHFGTCGSGSSGSS
B8: synthetic biotinylated peptide pp26 5 c (Seq # 197557-1) (peptide)
peptide: RSSHCRHRNCHTITRGNMRIETPNNIRKDAK(Biotin)
modifications: cysteine pairing not given here
B9: synthetic biotinylated peptide pp26 9 n (Seq # 197588-1) (peptide)
peptide: {Biotin-AEEA}-RSNVIPLNEVWYDTGWDRPHRSRLSIDDDA
notes: also called pp26 peptide 9; pp26 clone 9
B10: synthetic biotinylated peptide pp26 15 n (Seq # 198000-1) (peptide)
peptide: {Biotin-AEEA}-RSWRDTRKLHMRHYFPLAIDSYWDHTLRDA
notes: also called pp26 peptide 15; pp26 clone 15
B11: synthetic biotinylated peptide gurmarin 15 n (Seq # 194511-1) (peptide)
peptide: {Biotin-AEEA}-SGCVKKDELCSQSVPMCCEPLECKWFNENYGICGS
modifications: ends and bridges not checked
notes: also called gurm 15n; gurmarin peptide 15
B12: synthetic biotinylated peptide gurmarin 9 n (Seq # 194259-1) (peptide)
peptide: {Biotin-AEEA}-SGCVKKDELCARWDLVCCEPLECIYTSELYATCG
modifications: cysteine pairing not given here
notes: also called gurm 9n; gurmarin peptide 9
B13: synthetic biotinylated peptide pp26 5 n (Seq # 197557-2) (peptide)
peptide: {Biotin-AEEA}-RSSHCRHRNCHTITRGNMRIETPNNIRKDA
modifications: cysteine pairing not given here
B14: synthetic biotinylated peptide gurmarin 10 n (Seq # 194264-1) (peptide)
peptide: {Biotin-AEEA}-SGCVKKDELCELAVDECCEPLECFQMGHGFKRCG
modifications: ends and bridges not checked
notes: also called gurm 10n
B15: synthetic biotinylated peptide gurmarin 19 n (Seq # 194737-1) (peptide)
peptide: {Biotin-AEEA}-SGCVKKDELCELAIDECCEPLECTKGDLGFRKCG
modifications: ends and bridges not checked
notes: also called gurm 19n
B16: PP26 variant # 6 (seq # 197596) (peptide)
chain: MGRGSHHHHHHARSTMNTNRMDIQRLMTNHVKRDSSPGSIDANAPKASAI
B17: PP26 variant # 15 (seq # 198000) (peptide)
chain: MGRGSHHHHHHARSWRDTRKLHMRHYFPLAIDSYWDHTLRDANAPKASAI
B18: PP26 variant # 5 (seq # 197557) (peptide)
chain: MGRGSHHHHHHARSSHCRHRNCHTITRGNMRIETPNNIRKDANAPKASAI
B19: PP26 variant # 14 (seq # 197825) (peptide)
chain: MGRGSHHHHHHARSWQPEVKMSSLVDTSQTVGAAVETRTTDANAPKASA

target: T1, Pertussis toxin (PT) (Bordetella pertussis, UniProt P04977 35-269; P04978 28-226; P04979 29-227; P0A3R5 43-152; P04981 35-133); test: 35S-labelled, His-tag purified free peptide (TNT expressed) on biotinylated PT on streptavidin magnetic beads, scintillation counting (test 1)
T1 construct: mature; also called purified PT; biotinylated PT
Method: (§1) By this measure, those bated with biotinylated PT immobilized on streptavidin-magnetic beads for 1 h at RT. The beads were washed 3× with HBS-buffer and then resuspended in water and analyzed by liquid scintillation counting. In control experiments each candidate was incubated with streptavidin beads only (without PT).

Binder	binding result
B1	binds
B2	binds
B3	binds
B4	binds
B5	binds
B6	binds
B7	binds

target: T1, Pertussis toxin (PT); test: ~200 pmol peptide on streptavidin sepharose with 100 pmol purified PT, gel and silver staining

Binder	binding result
B8	binds

target: T1, Pertussis toxin (PT); test: BIAcore 2000, 2.5-100 nM peptide over PT amine coupled to a CM5 chip (6000 RU), HBS/EP, room temperature

Binder	Kd [nM]	koff [s⁻¹]	kon [M⁻¹ s⁻¹]
B9	7.5	0.001	130000

target: T1, Pertussis toxin (PT); test: 20 pmol sepharose-immobilized peptide with 100 pmol (500 nM) PT, bound PT quantified by gel, 1:1 ratio assumed

Binder	Fraction of binding active peptide [%]
B10	> 12.5
B11	> 50
B12	> 12.5
B13	> 5
B9	> 50
B14	> 5
B15	> 5

target: T1, Pertussis toxin (PT); test: 35S-labelled, His-tag purified free peptide (TNT expressed) on biotinylated PT on streptavidin magnetic beads, scintillation counting (test 1); remark: another data set of the same source
Method: as §1

Binder	binding result
B16	binds
B17	binds
B18	binds
B19	binds
